Source: patent US20140363427A1 (CRUCELL HOLLAND B V, published 2014)

B1: IgG form of 69F6 (antibody, V domains shown)
VH: QMQLVQSGAEVRKPGESLKIACKGSGYSFTSYWIAWVRQMPGKGLEWLGIIFPNDSDATYSPSFQGQVTMSVDKSISTAYLQWNSLKASDTAVYFCARQYYLGSFESWGQGTTVTVSS
VL: EIVLTQSPSSLSASVGDRVTISCQASQDISNYLNWYQQKPGKAPRLLIYDASYLDTGVPSRFSGSGSGTDFTFTISSLQPEDFATYYCQQYDDLRGGFTFGPGTKVDVKR
B2: IgG form of 56E11 (antibody, V domains shown)
VH: EVQLQESGPGLVKPSETLSLTCSVSGVSINSNNYFWAWIRQPPGKGLEWIGNIYYGGSTHYNASLQSRVTISVDTSKSQFSLKLNSVTSADTAVYYCAASESIFWDYYYGLDVWGQGTTVTVSS
VL: QAVLTQPPSASGSPGQSVTISCTGTSSDVGGYNYVSWYQQHPGKAPRLIISEVTKRPSGVPGRFSGSKSGNTASLTVSGLQAEDEADYYCSSYAGSRHVVFGGGTKLTVLG
B3: Fab 17C9 (Fab, V domains shown)
VH: QVQLQQWGAGLVRPSETLSLTCAVYGDSFNDYFWTWIRQTPGKGLEWIGEISHSGSTNYSPSLKSRVTISVDTSKNQFSLKLSAVTAADTTVYFCARGVRSRPPPSYRGSGSPPYYHYGMDVWGQGTTVTVSS
VL: EIVLTQSPSTLSASVGDRVTITCRASQNINTWLAWYQQKPGKAPKLLIYAASFLQSGVPSRFSGSGSGTDFTLTISNLQPEDFATYFCQQANSFPRTFGQGTKVEVKR
notes: also called 17C9 Fab
B4: Fab 38F10 (Fab, V domains shown)
VH: EVQLLESGGDVVQPGKSLRLSCTASGFSITDFGIHWVRQAPGKGLEWVALISYNEVNIHYGESVRGRFTISRDIAKNTVYLQMNGLRPEDTGVYFCARDVWEDSWLSLACFQEWGQGSLVVVSS
VL: DIQLTQSPPTLSASVGDRVSMTCRASQSISNWLAWYQQKPGKAPKLLIQKASNLEDGVPSRFTASGFGTEFTLTISSLQPDDFATYYCQQYNSYSGLSFGGGTKVDIKR
B5: Fab 30D8 (Fab, V domains shown)
VH: EVQLLQSGAELKKPGASVKISCKTSGFTFSGHTIAWVRQAPGQGLEWMGWVSTNNGNTEYAQKIQGRVTMTMDTSTSTVYMELRSLTSDDTAVYFCAREWLVMGGFAFDHWGQGTLLTVSS
VL: QSVLTQASSVSVAPGQTARITCGANNIGSQNVHWYQQKPGQAPVLVVYDDRDRPSGIPDRFSGSNSGNTATLTISRVEAGDEADYYCQVWDSSRDQAVIFGGGTKLTVLG
B6: Fab 90D3 (Fab, V domains shown)
VH: QVQLVESGGGLVKPGGSLRLSCVGSGFTLKNYEMNWVRQAPGQGLQYISYISSSGNVVKYVDSVQGRFTISRDNAGNSLYLQMNNLRAEDTATYYCVRGFSIDKYDSSVDEYWGQGIAVTVSS
VL: AIRLTQSPSSLSASVGDRVSITCRASQSISNFLNWYQQKPGRAPKLLISAASSLQGGVPSRFSGSGSGTDFTLTISSLQPEDFATYYCQQTYISLYTFGQGTKLEIKR
B7: Fab 69F6 (Fab, V domains shown)
VH: B1 VH
VL: B1 VL
notes: also called 69F6 Fab
B8: Fab 104E5 (Fab, V domains shown)
VH: QVQLEQSGAEVKKPGSSVKVSCKPSGGTFDTYTISWVRQAPGQRLEWLGRIIPSLGETNYAHKLQGRVTITADKATSVVYMDLSDLTSEDAAVYYCAFRITGPVDWVWDYGMDVWGQGTTVSVSS
VL: DIQMTQSPSSLPASVGDRVTITCRASQNIKTYLNWYQQKPGRAPKLLISAVSNLQSGVPSRFSGTGSGTDFTLTISSLQPEDFATYYCQQSFSIPLTFGGGAKVEIKR
B9: Fab 56E11 (Fab, V domains shown)
VH: B2 VH
VL: B2 VL
notes: also called 56E11 Fab
B10: IgG form of 17C9 (antibody, V domains shown)
VH: B3 VH
VL: B3 VL
B11: IgG form of 38F10 (antibody, V domains shown)
VH: B4 VH
VL: B4 VL
B12: IgG form of 104E5 (antibody, V domains shown)
VH: B8 VH
VL: B8 VL
B13: IgG form of 14G3 (antibody, V domains shown)
VH: QVQLQESGPGLVKPSQTLSLTCTVSGASISSDNHYWSWIRQPPGKGLEWIASIYYTGGTNYNPSLKSRLALSIDTSGDQFSLKLSSVTAADTAVYYCVRGLFFITARPYWYFDLWGRGTLVAVSS
VL: DVVMTQTPLSLSVTPGEPASISCRSSQSLLDSDDGNTYLDWYLQKPGQSPQLLIYTLSYRASGVPDRFSGSGSGTDFTLKISRVEADDVGIYYCMQRMEFPFTFGQGTRLDIKR

These binders were tested against T1, recombinant RSV F protein, strain A2, extracellular domain (Respiratory Syncytial Virus strain A2, UniProt P03420 26-524) (assay: comparison of ELISA EC50).
T1 construct: also called RSV F1 lysate (recombinant); RSV F lysate

B1 and B2 are the same in “fold less affinity than the IgG form of 30D8” value: about 10 fold for the first, about 10 fold for the second.

These binders were tested against T2, native RSV F protein from the RSV A2 strain (Respiratory Syncytial Virus strain A2, UniProt P03420 26-574) (assay: cell-based or functional assay).

Compared with B3, B4 is 2.3-fold higher in “ED50, plaque reduction, RSV A2” value: 0.352 nM for the first, 0.8 nM for the second.

Going from B5 to B6, the “ED50, plaque reduction, RSV A2” value rises from 0.107 nM to 0.8 nM (7.5-fold).

Going from B7 to B8, the “ED50, plaque reduction, RSV A2” value rises from 0.26 nM to 0.58 nM (2.2-fold).

In the case of B9, the “ED50, plaque reduction, RSV A2” value is reported as 0.93 nM.

B4 and B8 are within 1.5-fold of each other in “ED50, plaque reduction, RSV A2 (mass concentration)” value: 0.04 µg/mL for the first, 0.029 µg/mL for the second.

Target: T2, native RSV F protein from the RSV A2 …
Assay: cell-based or functional assay
Remark: another data set of the same source

First: B10
Second: B11
The “ED50, plaque reduction, RSV A2” value of the first is 1.5-fold lower: 0.363 nM for the first, 0.553 nM for the second.

In the case of B12, the “ED50, plaque reduction, RSV A2” value is reported as 0.8 nM.

The binders below were run against F protein of RSV B-1 (respiratory syncytial virus B-1, UniProt O36634 26-574) (assay: cell-based or functional assay).

Compared with B13, B10 is 33-fold lower in “ED50, plaque reduction, RSV B-1” value: 10.7 nM for the first, 0.329 nM for the second.

Compared with B11, B1 is higher in “ED50, plaque reduction, RSV B-1” value: 1.4 nM for the first, over 67 nM for the second.

Going from B12 to B2, the “ED50, plaque reduction, RSV B-1” value falls from 1.7 nM to 0.295 nM (5.8-fold).

What follows are binders tested against F protein of RSV B-wash (strain 18537) (respiratory syncytial virus B, strain …, UniProt P13843 26-574) (assay: cell-based or functional assay).

Going from B13 to B10, the “ED50, plaque reduction, RSV B/wash” value falls from 4.5 nM to 0.86 nM (5.2-fold).

First: B11
Second: B1
The “ED50, plaque reduction, RSV B/wash” value of the first is lower: 5.3 nM for the first, over 67 nM for the second.

First: B12
Second: B2
The “ED50, plaque reduction, RSV B/wash” value of the first is 28-fold higher: 8 nM for the first, 0.282 nM for the second.

The binders below were run against F protein of the parental RSV A2 strain (Example 11) (Respiratory Syncytial Virus strain A2, UniProt P03420 26-574) (assay: cell-based or functional assay).

Going from B3 to B7, the “ED50, plaque reduction, RSV A2 parental” value falls from 0.436 nM to 0.256 nM (1.7-fold).

What follows are binders tested against T2, native RSV F protein from the RSV A2 … (assay: ELISA, purified Fab, estimated EC50).

First: B4
Second: B8
The EC50 of the first is 2.2-fold higher: 0.177 nM for the first, 0.08 nM for the second.

These binders were tested against T1, recombinant RSV F protein, strain A2, … (assay: ELISA, purified Fab, estimated EC50).

B3 and B7 are within 1.5-fold of each other in EC50: 0.136 nM for the first, 0.135 nM for the second.

In the case of B9, the EC50 is reported as 0.545 nM.

Each binder was assayed against T1, recombinant RSV F protein, strain A2, … (assay: ELISA, IgG titrated, estimated EC50).

First: B13
Second: B1
The EC50 of the first is 4-fold higher: 0.251 nM for the first, 0.063 nM for the second. The second is the more potent here.

B2 showed an EC50 of 0.073 nM.

These binders were tested against T2, native RSV F protein from the RSV A2 … (assay: ELISA, IgG titrated, estimated EC50).

Going from B10 to B11, the EC50 falls from 0.059 nM to 0.035 nM (1.7-fold).

With B12 the EC50 was 0.0145 nM.
